We go through 15 sequences from the supplement of paper PMC12764529.

± gives the half width of the 95% confidence interval.

Data set [1] in a line: folding stability dG unfold from trypsin proteolysis; higher = more stable. In short, it runs like this:
(§1)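 Designed mini-proteins (under 80 residues, no cysteine) in a PA-tagged cDNA display construct were digested with trypsin and chymotrypsin. Each protease was used at 11 concentrations (threefold dilutions) plus a no-protease condition, followed by sequencing. K50 was inferred by Bayesian fitting of sequencing counts, and unfolding free energy was derived against a sequence-predicted unfolded-state K50 and a shared folded-state K50, per protease or combined. Only designs with AlphaFold2 dimer inter-PAE above 15 were kept.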

The nature of data set [2]: folding stability dG unfold from chymotrypsin proteolysis; higher = more stable. In a few lines: as §1
Data set [3] in a line: folding stability dG unfold (combined trypsin and chymotrypsin); higher = more stable. In short, it runs like this: as §1

As for “SMVKIYAAPNVPPEQREAIERLVKRILENPDIPIDPETIGKLIKEEAGNPELTIDRIEILPLVPPGVAEKSA [r9_620_TrMRF]”, the entries for the “folding stability dG unfold” value in data set [1], in data set [2] and in data set [3] were 0.79 ± 0.064 kcal/mol, 0.896 ± 0.082 kcal/mol and 0.794 ± 0.099 kcal/mol, respectively.
For “SMVLELPAKDLKLEVNEDGTLKLTIKLENGKKVTFTFPAGDKITKIEVLSPDKVKIIFEKKPLKDLKTFLSA [r9_501_TrMRF]”, in that order: 1.1 ± 0.047 kcal/mol, 1.76 ± 0.074 kcal/mol and 1.61 ± 0.19 kcal/mol.
As for “SMVTVETRPEEVLPDAEGRLRRVTVVITFPDGKTLTVDMEFPPDVSDEEVEERLRALVEELGVESIELLGSA [r9_1203_JUSTAS]”, the “folding stability dG unfold” value is 3.7 ± 0.11 kcal/mol in data set [1], 1.81 ± 0.086 kcal/mol in data set [2] and 2.99 ± 0.17 kcal/mol in data set [3].
For “SMVTVTFPDASPEEIRAAIEAHPDRDVVLVTAPGKEEELEKILKEYDYTKEEKALPDGRKVRVMKVKVPRSA [r9_1138_JUSTAS]”, the figures for the “folding stability dG unfold” value in data set [1], in data set [2] and in data set [3] were 0.784 ± 0.14 kcal/mol, 0.176 ± 0.42 kcal/mol and 0.462 ± 0.25 kcal/mol, respectively.
For “SMYKVKVKLLITNPKTGEKLEVEVEATLEEAEKLAEELEKKYPELNWKVEIKEIEIYPIPKPVLVKPGEASA [r9_14_TrMRF]” the same measures were 2.45 ± 0.34 kcal/mol, 3.51 ± 0.096 kcal/mol and 3.46 ± 0.22 kcal/mol.
For “SNFPPGQQIKFTFRLPDNGMKIKIEVHVHPDGYVQVRMERENPDNGKRVKITFYVPGPTLDEILDFIEQFSA [r9_618_TrROS]”, in that order: 2.97 ± 0.09 kcal/mol, 3.852 ± 0.038 kcal/mol and 3.52 ± 0.08 kcal/mol.
“SNIEIEPYQPGEPREYEIPPGKLKITFYQDPGPMYIRVKDPGNGEPVEIPIPMERGDWDNAAKKILKAIKSA [r9_982_TrROS]”: the “folding stability dG unfold” value stood at 0.81 ± 0.14 kcal/mol in data set [1], 0.454 ± 0.27 kcal/mol in data set [2] and 0.802 ± 0.32 kcal/mol in data set [3].
For “SNIRIEVDPPNGVIRVTYTFPGDSLSDIKDEIVEYIQKLGFPIEVDIDKIEPMNNYWRVTAYIKIPPGAISA [r9_347_TrROS]”, in that order: 3.21 ± 0.095 kcal/mol, 4.56 ± 0.056 kcal/mol and 4.18 ± 0.086 kcal/mol.
For “SNNNEVTIEIMIMFKYPRPEYDPDNGKPEPEPVYFMFPIKIEGKADDPEDAKRAADNILDRFLKDPDYIMSA [r9_77_TrROS]” the same measures were 1.79 ± 0.12 kcal/mol, 2.95 ± 0.045 kcal/mol and 2.6 ± 0.17 kcal/mol.
For “SNPDDQKKAKPIEIEIEIDFKPERERDPDGKERPRFEFDIEIKIPPGAPLDMITIYIRFDDWPFMITIPASA [r9_488_TrROS]”, in that order: 1.8 ± 0.075 kcal/mol, 3.42 ± 0.15 kcal/mol and 2.95 ± 0.28 kcal/mol.
As to “SNPNIKVTTTSETLPDNTLRTTETNPDTGTVTETLVPTDGNGPKTVKTTTTTTDTSTGKKTITTTTTTIPVS [r1_45_JUSTAS]”, the entries for the “folding stability dG unfold” value in data set [1], in data set [2] and in data set [3] were -1.33 ± 0.26 kcal/mol, 0.99 ± 0.02 kcal/mol and 0.529 ± 0.085 kcal/mol, respectively.
As for “SPAEINIEFDPEEGRLRIKVKLEWPGGDPEPIATHEVPIGNNRYITYPIYKHPDGPWRIEDIDIMPPDELSA [r9_780_TrROS]”, the results for the “folding stability dG unfold” value in data set [1], in data set [2] and in data set [3] were 0.283 ± 0.14 kcal/mol, 1 ± 0.15 kcal/mol and 0.727 ± 0.35 kcal/mol, respectively.
For “SPAKPVPIEITMHGDGMFEIRLPNGKEISFPNPDGQWAQATVDPDEGTIEIEMYNNGKRHTFEIPLPPNDSA [r9_226_TrROS]” the same measures were 0.153 ± 0.14 kcal/mol, 0.499 ± 0.17 kcal/mol and 0.459 ± 0.16 kcal/mol.
For “SPDPGMKPRPMYMIRIKIEVTTPDGKKRGKHDFIIQSPEEAKEFIEELAENRGMKIKKIDIDIYPMPWLKSA [r9_1226_TrROS]” the same measures were 1.5 ± 0.044 kcal/mol, 2.56 ± 0.061 kcal/mol and 2.18 ± 0.1 kcal/mol.
For “SPDVKILDIERHPDDGSISIKLKFPDGWPVTLHYNPDGSHTIHNPGNGAPIQIKYDGNQLKIELPDNLKFSA [r9_233_TrROS]” the same measures were 0.478 ± 0.023 kcal/mol, 0.868 ± 0.086 kcal/mol and 0.729 ± 0.083 kcal/mol.
